To fix the notation:
B1: IKKα (enzyme, UniProt O15111 1-745, looked up)
chain: MERPPGLRPGAGGPWEMRERLGTGGFGNVCLYQHRELDLKIAIKSCRLELSTKNRERWCHEIQIMKKLNHANVVKACDVPEELNILIHDVPLLAMEYCSGGDLRKLLNKPENCCGLKESQILSLLSDIGSGIRYLHENKIIHRDLKPENIVLQDVGGKIIHKIIDLGYAKDVDQGSLCTSFVGTLQYLAPELFENKPYTATVDYWSFGTMVFECIAGYRPFLHHLQPFTWHEKIKKKDPKCIFACEEMSGEVRFSSHLPQPNSLCSLVVEPMENWLQLMLNWDPQQRGGPVDLTLKQPRCFVLMDHILNLKIVHILNMTSAKIISFLLPPDESLHSLQSRIERETGINTGSQELLSETGISLDPRKPASQCVLDGVRGCDSYMVYLFDKSKTVYEGPFASRSLSDCVNYIVQDSKIQLPIIQLRKVWAEAVHYVSGLKEDYSRLFQGQRAAMLSLLRYNANLTKMKNTLISASQQLKAKLEFFHKSIQLDLERYSEQMTYGISSEKMLKAWKEMEEKAIHYAEVGVIGYLEDQIMSLHAEIMELQKSPYGRRQGDLMESLEQRAIDLYKQLKHRPSDHSYSDSTEMVKIIVHTVQSQDRVLKELFGHLSKLLGCKQKIIDLLPKVEVALSNIKEADNTVMFMQGKRQKEIWHLLKIACTQSSARSLVGSSLEGAVTPQTSAWLPPTSAEHDHSLSCVVTPQDGETSAQMIEENLNCLGHLSTIIHEANEEQGNSMMNLDWSWLTE
notes: Construct and tag not described for this test
B2: TRAF-6 (other, UniProt Q9Y4K3 1-522, looked up)
chain: MSLLNCENSCGSSQSESDCCVAMASSCSAVTKDDSVGGTASTGNLSSSFMEEIQGYDVEFDPPLESKYECPICLMALREAVQTPCGHRFCKACIIKSIRDAGHKCPVDNEILLENQLFPDNFAKREILSLMVKCPNEGCLHKMELRHLEDHQAHCEFALMDCPQCQRPFQKFHINIHILKDCPRRQVSCDNCAASMAFEDKEIHDQNCPLANVICEYCNTILIREQMPNHYDLDCPTAPIPCTFSTFGCHEKMQRNHLARHLQENTQSHMRMLAQAVHSLSVIPDSGYISEVRNFQETIHQLEGRLVRQDHQIRELTAKMETQSMYVSELKRTIRTLEDKVAEIEAQQCNGIYIWKIGNFGMHLKCQEEEKPVVIHSPGFYTGKPGYKLCMRLHLQLPTAQRCANYISLFVHTMQGEYDSHLPWPFQGTIRLTILDQSEAPVRQNHEEIMDAKPELLAFQRPTIPRNPKGFGYVTFMHLEALRQRTFIKDDTLLVRCEVSTRFDMGSLRREGFQPRSTDAGV
notes: Construct and tag not described
B3: TRAF-1 (other, UniProt Q13077 1-416, looked up)
chain: MASSSGSSPRPAPDENEFPFGCPPTVCQDPKEPRALCCAGCLSENPRNGEDQICPKCRGEDLQSISPGSRLRTQEKAHPEVAEAGIGCPFAGVGCSFKGSPQSVQEHEVTSQTSHLNLLLGFMKQWKARLGCGLESGPMALEQNLSDLQLQAAVEVAGDLEVDCYRAPCSESQEELALQHFMKEKLLAELEGKLRVFENIVAVLNKEVEASHLALATSIHQSQLDRERILSLEQRVVELQQTLAQKDQALGKLEQSLRLMEEASFDGTFLWKITNVTRRCHESACGRTVSLFSPAFYTAKYGYKLCLRLYLNGDGTGKRTHLSLFIVIMRGEYDALLPWPFRNKVTFMLLDQNNREHAIDAFRPDLSSASFQRPQSETNVASGCPLFFPLSKLQSPKHAYVKDDTMFLKCIVETST
notes: as for B2
B4: RIP (enzyme, UniProt Q13546 1-671, looked up)
chain: MQPDMSLNVIKMKSSDFLESAELDSGGFGKVSLCFHRTQGLMIMKTVYKGPNCIEHNEALLEEAKMMNRLRHSRVVKLLGVIIEEGKYSLVMEYMEKGNLMHVLKAEMSTPLSVKGRIILEIIEGMCYLHGKGVIHKDLKPENILVDNDFHIKIADLGLASFKMWSKLNNEEHNELREVDGTAKKNGGTLYYMAPEHLNDVNAKPTEKSDVYSFAVVLWAIFANKEPYENAICEQQLIMCIKSGNRPDVDDITEYCPREIISLMKLCWEANPEARPTFPGIEEKFRPFYLSQLEESVEEDVKSLKKEYSNENAVVKRMQSLQLDCVAVPSSRSNSATEQPGSLHSSQGLGMGPVEESWFAPSLEHPQEENEPSLQSKLQDEANYHLYGSRMDRQTKQQPRQNVAYNREEERRRRVSHDPFAQQRPYENFQNTEGKGTAYSSAASHGNAVHQPSGLTSQPQVLYQNNGLYSSHGFGTRPLDPGTAGPRVWYRPIPSHMPSLHNIPVPETNYLGNTPTMPFSSLPPTDESIKYTIYNSTGIQIGAYNYMEIGGTSSSLLDSTNTNFKEEPAAKYQAIFDNTTSLTDKHLDPIRENLGKHWKNCARKLGFTQSQIDEIDHDYERDGLKEKVYQMLQKWVMREGIKGATVGKLAQALHQCSRIDLLSSLIYVSQN
notes: as for B1
B5: TRAF-2 (other, UniProt Q12933 1-501, looked up)
chain: MAAASVTPPGSLELLQPGFSKTLLGTKLEAKYLCSACRNVLRRPFQAQCGHRYCSFCLASILSSGPQNCAACVHEGIYEEGISILESSSAFPDNAARREVESLPAVCPSDGCTWKGTLKEYESCHEGRCPLMLTECPACKGLVRLGEKERHLEHECPERSLSCRHCRAPCCGADVKAHHEVCPKFPLTCDGCGKKKIPREKFQDHVKTCGKCRVPCRFHAIGCLETVEGEKQQEHEVQWLREHLAMLLSSVLEAKPLLGDQSHAGSELLQRCESLEKKTATFENIVCVLNREVERVAMTAEACSRQHRLDQDKIEALSSKVQQLERSIGLKDLAMADLEQKVLEMEASTYDGVFIWKISDFARKRQEAVAGRIPAIFSPAFYTSRYGYKMCLRIYLNGDGTGRGTHLSLFFVVMKGPNDALLRWPFNQKVTLMLLDQNNREHVIDAFRPDVTSSSFQRPVNDMNIASGCPLFCPVSKMEAKNSYVRDDAIFIKAIVDLTGL
notes: as for B2
B6: NIK (enzyme, UniProt Q99558 1-947, looked up)
chain: MAVMEMACPGAPGSAVGQQKELPKAKEKTPPLGKKQSSVYKLEAVEKSPVFCGKWEILNDVITKGTAKEGSEAGPAAISIIAQAECENSQEFSPTFSERIFIAGSKQYSQSESLDQIPNNVAHATEGKMARVCWKGKRRSKARKKRKKKSSKSLAHAGVALAKPLPRTPEQESCTIPVQEDESPLGAPYVRNTPQFTKPLKEPGLGQLCFKQLGEGLRPALPRSELHKLISPLQCLNHVWKLHHPQDGGPLPLPTHPFPYSRLPHPFPFHPLQPWKPHPLESFLGKLACVDSQKPLPDPHLSKLACVDSPKPLPGPHLEPSCLSRGAHEKFSVEEYLVHALQGSVSSGQAHSLTSLAKTWAARGSRSREPSPKTEDNEGVLLTEKLKPVDYEYREEVHWATHQLRLGRGSFGEVHRMEDKQTGFQCAVKKVRLEVFRAEELMACAGLTSPRIVPLYGAVREGPWVNIFMELLEGGSLGQLVKEQGCLPEDRALYYLGQALEGLEYLHSRRILHGDVKADNVLLSSDGSHAALCDFGHAVCLQPDGLGKSLLTGDYIPGTETHMAPEVVLGRSCDAKVDVWSSCCMMLHMLNGCHPWTQFFRGPLCLKIASEPPPVREIPPSCAPLTAQAIQEGLRKEPIHRVSAAELGGKVNRALQQVGGLKSPWRGEYKEPRHPPPNQANYHQTLHAQPRELSPRAPGPRPAEETTGRAPKLQPPLPPEPPEPNKSPPLTLSKEESGMWEPLPLSSLEPAPARNPSSPERKATVPEQELQQLEIELFLNSLSQPFSLEEQEQILSCLSIDSLSLSDDSEKNPSKASQSSRDTLSSGVHSWSSQAEARSSSWNMVLARGRPTDTPSYFNGVKVQIQSLNGEHLHIREFHRVKVGDIATGISSQIPAAAFSLVTKDGQPVRYDMEVPDSGIDLQCTLAPDGSFAWSWRVKHGQLENRP
notes: as for B2
B7: Ced-4 (other, UniProt P30429 1-549, looked up)
chain: MLCEIECRALSTAHTRLIHDFEPRDALTYLEGKNIFTEDHSELISKMSTRLERIANFLRIYRRQASELGPLIDFFNYNNQSHLADFLEDYIDFAINEPDLLRPVVIAPQFSRQMLDRKLLLGNVPKQMTCYIREYHVDRVIKKLDEMCDLDSFFLFLHGRAGSGKSVIASQALSKSDQLIGINYDSIVWLKDSGTAPKSTFDLFTDILLMLKSEDDLLNFPSVEHVTSVVLKRMICNALIDRPNTLFVFDDVVQEETIRWAQELRLRCLVTTRDVEISNAASQTCEFIEVTSLEIDECYDFLEAYGMPMPVGEKEEDVLNKTIELSSGNPATLMMFFKSCEPKTFEKMAQLNNKLESRGLVGVECITPYSYKSLAMALQRCVEVLSDEDRSALAFAVVMPPGVDIPVKLWSCVIPVDICSNEEEQLDDEVADRLKRLSKRGALLSGKRMPVLTFKIDHIIHMFLKHVVDAQTIANGISILEQRLLEIGNNNVSVPERHIPSHFQKFRRSSASEMYPKTTEETVIRPEDFPKFMQLHQKFYDSLKNFACC
notes: as for B2
B8: IKKβ (enzyme, UniProt O14920 1-756, looked up)
chain: MSWSPSLTTQTCGAWEMKERLGTGGFGNVIRWHNQETGEQIAIKQCRQELSPRNRERWCLEIQIMRRLTHPNVVAARDVPEGMQNLAPNDLPLLAMEYCQGGDLRKYLNQFENCCGLREGAILTLLSDIASALRYLHENRIIHRDLKPENIVLQQGEQRLIHKIIDLGYAKELDQGSLCTSFVGTLQYLAPELLEQQKYTVTVDYWSFGTLAFECITGFRPFLPNWQPVQWHSKVRQKSEVDIVVSEDLNGTVKFSSSLPYPNNLNSVLAERLEKWLQLMLMWHPRQRGTDPTYGPNGCFKALDDILNLKLVHILNMVTGTIHTYPVTEDESLQSLKARIQQDTGIPEEDQELLQEAGLALIPDKPATQCISDGKLNEGHTLDMDLVFLFDNSKITYETQISPRPQPESVSCILQEPKRNLAFFQLRKVWGQVWHSIQTLKEDCNRLQQGQRAAMMNLLRNNSCLSKMKNSMASMSQQLKAKLDFFKTSIQIDLEKYSEQTEFGITSDKLLLAWREMEQAVELCGRENEVKLLVERMMALQTDIVDLQRSPMGRKQGGTLDDLEEQARELYRRLREKPRDQRTEGDSQEMVRLLLQAIQSFEKKVRVIYTQLSKTVVCKQKALELLPKVEEVVSLMNEDEKTVVRLQEKRQKELWNLLKIACSKVRGPVSGSPDSMNASRLSQPGQLMSQPSTASNSLPEPAKKSEELVAEAHNLCTLLENAIQDTVREQDQSFTALDWSWLQTEEEEHSCLEQAS
notes: as for B1
B9: TRADD (other, UniProt Q15628 1-312, looked up)
chain: MAAGQNGHEEWVGSAYLFVESSLDKVVLSDAYAHPQQKVAVYRALQAALAESGGSPDVLQMLKIHRSDPQLIVQLRFCGRQPCGRFLRAYREGALRAALQRSLAAALAQHSVPLQLELRAGAERLDALLADEERCLSCILAQQPDRLRDEELAELEDALRNLKCGSGARGGDGEVASAPLQPPVPSLSEVKPPPPPPPAQTFLFQGQPVVNRPLSLKDQQTFARSVGLKWRKVGRSLQRGCRALRDPALDSLAYEYEREGLYEQAFQLLRRFVQAEGRRATLQRLVEALEENELTSLAEDLLGLTDPNGGLA
notes: as for B2

Experimental findings from patent publication US20020127673A1 (REGENTS OF THE UNIVERSITY OF MICHIGAN, published 2002) are described below.

T1 sequence (Q9HC29 whole entry R703H): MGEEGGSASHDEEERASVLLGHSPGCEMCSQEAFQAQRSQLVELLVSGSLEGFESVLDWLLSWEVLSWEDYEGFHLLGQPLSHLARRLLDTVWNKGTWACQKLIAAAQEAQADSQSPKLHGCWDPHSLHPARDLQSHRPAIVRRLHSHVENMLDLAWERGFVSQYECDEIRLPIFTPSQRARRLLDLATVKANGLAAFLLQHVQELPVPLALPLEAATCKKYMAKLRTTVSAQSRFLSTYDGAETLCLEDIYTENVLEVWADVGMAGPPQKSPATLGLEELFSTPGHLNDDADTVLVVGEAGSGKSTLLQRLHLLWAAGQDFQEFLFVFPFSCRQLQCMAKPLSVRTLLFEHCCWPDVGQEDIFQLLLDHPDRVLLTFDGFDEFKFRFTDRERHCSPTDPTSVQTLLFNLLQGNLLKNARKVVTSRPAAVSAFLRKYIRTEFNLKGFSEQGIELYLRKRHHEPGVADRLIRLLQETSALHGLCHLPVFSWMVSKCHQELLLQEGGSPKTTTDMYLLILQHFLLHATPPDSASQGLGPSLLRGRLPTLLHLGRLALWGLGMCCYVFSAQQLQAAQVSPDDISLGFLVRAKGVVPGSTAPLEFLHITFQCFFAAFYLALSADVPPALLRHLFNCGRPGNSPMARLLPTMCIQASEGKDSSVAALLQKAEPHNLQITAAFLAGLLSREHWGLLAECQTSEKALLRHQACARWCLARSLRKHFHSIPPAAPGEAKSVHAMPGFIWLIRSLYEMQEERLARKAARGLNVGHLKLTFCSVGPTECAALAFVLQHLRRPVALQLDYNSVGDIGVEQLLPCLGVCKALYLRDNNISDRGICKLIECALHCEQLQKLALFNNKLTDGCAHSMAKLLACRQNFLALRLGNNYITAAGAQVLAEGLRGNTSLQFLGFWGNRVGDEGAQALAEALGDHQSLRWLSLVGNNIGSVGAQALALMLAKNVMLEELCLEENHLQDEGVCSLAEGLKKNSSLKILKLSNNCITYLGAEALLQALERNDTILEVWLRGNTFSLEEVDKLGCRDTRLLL

The assay has as its target T1, HA-tagged wild-type Nod2 (human, UniProt Q9HC29 1-1040).
T1 construct: Expressed by transfection in HEK293T cells and tested in cell lysates; also called wt Nod2; pcDNA3-Nod2-HA; not shown: HA tag
Nature of the assay: co-immunoprecipitation from co-transfected HEK293T cells. From the text:
The CARD motif functions as an effector domain that mediates specific homophilic interaction with downstream CARD-containing molecules (Hofmann et al., Trends Biochem. Sci. 22: 155-156 [1997]).
Regarding B1, the binding result is “no binding”.

Consider B2, for which the binding result is listed as “no binding”. As for B3, the entry is “no binding”; as for B4, “no binding”; as for B5, “no binding”. On to B6, for which the binding result is “no binding”.

Turning to B7, the binding result is reported as “no binding”.

Turning to B8, the binding result is listed as “no binding”.

With B9, the binding result is reported as “no binding”.
